The source of these data is article PMC6354225, “Synthesis and Preclinical Characterization of the PSMA-Targeted Hybrid Tracer PSMA-I&F for Nuclear and Fluorescence Imaging of Prostate Cancer” (Journal of Nuclear Medicine, 2019).

Data set [1] addresses human serum albumin (HSA) (Homo sapiens, UniProt P02768). The data set is described as follows: HSA binding by gradient high-performance liquid chromatography method. The class given is in vitro ADME. To be noted: plasma. How it is done: The lipophilicity of ^68Ga- and ^177Lu-PSMA-I&F was determined via a modified shake-flask method as previously described ([38]). Plasma protein binding of both tracers was determined using 2 alternative methods, that is, incubation in fresh human plasma and subsequent ultrafiltration ([20]) and a previously established gradient high-performance liquid chromatography method for the quantification of human serum albumin (HSA) binding ([41],[42]).

The test system of data set [2] is PSMA-positive LNCaP cells. Description: Fluorescence microscopy of ligand internalization, PSMA-positive cells. The class given is cell-based. To be noted: 25 nM, 60 min, 37°C. Here is the method:
Competitive binding experiments (IC50) were performed in analogy to a previously published protocol ([38]) using LNCaP cells and (^125I-BA)KuE as a standard radioligand. Internalization kinetics of ^68Ga-PSMA-I&F and ^177Lu-PSMA-I&F (2 nM) were investigated in dual-tracer internalization assays using PSMA-expressing LNCaP cells and (^125I-BA)KuE (0.1 nM) as an internal reference. To differentiate between membrane-bound and internalized activity, an acid wash (50 mM NaOAc in saline, pH 4.5) was performed prior to lysis of the cells (1N NaOH) and quantification of internalized activity (lysate) using a γ-counter. […] For fluorescence microscopy, PSMA-positive LNCaP and PSMA-negative PC3 cells (seeded on glass cover slips) were incubated with the respective PSMA-I&F analog (100 or 25 nM) in the absence (total binding/internalization) or presence (nonspecific binding/internalization) of 10 μM 2-PMPA at 37 °C for 5 or 60 min. […] Ligand internalization was visualized using a Keyence BZ-9000 fluorescence microscope equipped with Cy5 (620/60 nm excitation, 700/75 nm emission), DAPI-BP (370/50 nm excitation, 447/60 nm emission), and GFP-BP (472.5/30 nm excitation, 520/35 nm emission) filters.

Data set [3] relates to LNCaP xenografts. Description: Intraoperative / ex vivo fluorescence imaging of LNCaP xenografts. The settings on record: 2 nmol, 1 h after injection, Dino-Lite microscope and Firefly laparoscope. The class given is in vivo, CB17 SCID mice. How it is done: Fluorescence imaging (intraoperative/ex vivo) of LNCaP xenografts in CB17 SCID mice (1 h after injection) was performed using 2 different instrumental setups: a handheld digital microscope for Cy5 (Dino-Lite Edge AM4115T-DFRW; AnMo Electronics Corp.) and DinoCapture 2.0 software (AnMo Electronics Corp.); and a 0°Firefly laparoscope that is compatible with the surgical robotic da Vinci Si system (Intuitive Surgical Inc.), using a fluid light cable for target illumination (495 FR; KARL STORZ Endoskope GmbH&Co.KG) and a bandpass filter (Edmund Optics Inc.) to isolate the Cy5 emission. Images were captured from the unprocessed Firefly video feed. For instrumental details see supplemental data.

The test system of data set [4] is LNCaP tumors. To be noted: in vivo; cited from earlier work.
Data set [5] deals with tumor xenograft (PC-3 PIP). The settings on record: in vivo; cited from earlier work.
Details of data set [6]: method as in PMID 28721307. To be noted: cited from earlier work.
On the set-up of data set [7]: method as in earlier work. To be noted: cited from earlier work.

Chain of human serum albumin (HSA) (P02768 25-609): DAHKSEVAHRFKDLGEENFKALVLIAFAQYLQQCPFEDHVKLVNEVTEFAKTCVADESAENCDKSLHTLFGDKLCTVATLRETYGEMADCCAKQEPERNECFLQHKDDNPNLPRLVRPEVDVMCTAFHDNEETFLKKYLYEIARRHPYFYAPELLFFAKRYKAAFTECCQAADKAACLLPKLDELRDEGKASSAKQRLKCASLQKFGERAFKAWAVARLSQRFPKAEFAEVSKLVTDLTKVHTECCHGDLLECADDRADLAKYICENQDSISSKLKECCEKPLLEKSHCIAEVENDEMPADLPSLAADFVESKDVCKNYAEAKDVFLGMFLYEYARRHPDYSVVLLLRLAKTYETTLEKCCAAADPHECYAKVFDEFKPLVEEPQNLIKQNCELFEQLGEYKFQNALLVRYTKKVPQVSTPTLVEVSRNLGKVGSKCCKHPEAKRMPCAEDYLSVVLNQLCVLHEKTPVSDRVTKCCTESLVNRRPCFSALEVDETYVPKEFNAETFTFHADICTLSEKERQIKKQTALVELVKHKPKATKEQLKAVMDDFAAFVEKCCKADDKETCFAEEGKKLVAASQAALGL

As usually defined, the fraction unbound is the share of the substance not bound to proteins or other matrix. Read a high fraction unbound as weak binding. Compound `C[N+]1=C(/C=C/C=C/C=C2/N(CCCCCC(=O)NCCCC[C@@H](NC(=O)CCC(C(=O)O)N3CCN(CC(=O)O)CCN(CC(=O)O)CCN(CC(=O)O)CC3)C(=O)N[C@H](Cc3ccc(O)c(I)c3)C(=O)N[C@H](Cc3ccc(O)c(I)c3)C(=O)N[C@H](CCCCNC(=O)CCCCCCC(=O)NCCCC[C@H](NC(=O)N[C@@H](CCC(=O)O)C(=O)O)C(=O)O)C(=O)O)c3ccc(S(=O)(=O)O)cc3C2(C)C)C(C)(C)c2cc(S(=O)(=O)[O-])ccc21` (stereo partly drawn) [PSMA-I&F, DOTAGA-D-Lys(Nε-Sulfo-Cy5)-D-(3-iodo)Tyr-D-(3-iodo)Tyr-D-Lys(Nε-Sub-KuE)] showed a free fraction (fraction unbound) in data set [1] of 0.017. For the same compound, the “Comparative ligand internalization by fluorescence microscopy” value in data set [2] is “highly efficient and identical ligand internalization”. For the same compound, the “Intraoperative and ex vivo fluorescence detection of tumor xenograft” value in data set [3] is on record as “sensitive in vivo detection of the PSMA-I&F–positive tumor xenograft with good contrast to the surrounding tissue”.

Take IRDye800CW-^68Ga-HBED-CC-KuE: in data set [4], the tumor-to-blood ratio was 4.5, the tumor-to-intestines ratio is recorded as 5.7, the tumor-to-liver ratio was 4.9 and the tumor-to-muscle ratio was 4.8.

Turning to ^111In-DOTA-Lys(Nε-IRDye800CW)-Sub-KuE, in data set [5], the “Increase of tracer uptake in the excretion organs and the tumor xenograft (PC-3 PIP) compared with parent compound” value was 2-4 factor; the tumor-to-blood ratio is reported as 1.4; the tumor-to-intestines ratio is 7.7; the tumor-to-liver ratio is listed as 5.8. Also, the tumor-to-muscle ratio in data set [5] is given as 11.6.

For the compound `CC1(C)C(/C=C/C=C/C=C/C=C2\N(CCCCS(=O)(=O)O)c3ccc4ccccc4c3C2(C)C)=[N+](CCCCS(=O)(=O)[O-])c2ccc3ccccc3c21` [ICG, indocyanine green], the “brightness (quantum yield)” value in data set [6] is reported as 0.3%.

Take `CN1/C(=C/C=C/C=C/C2=[N+](CCCCCC(=O)O)c3ccc(S(=O)(=O)[O-])cc3C2(C)C)C(C)(C)c2cc(S(=O)(=O)O)ccc21` [Sulfo-Cy5]: in data set [7], the brightness is listed as 51 × 10^3 M^−1⋅cm^−1.
